Experimental data taken from publication PMC10709064, “The leucine zipper domain of the transcriptional repressor Opi1 underlies a signal transduction mechanism regulating lipid synthesis” (The Journal of Biological Chemistry, 2023).

B5: MBP-N-Opi1^WT (maltose-binding protein fused to the N-terminal Opi1^1-190 polypeptide) (domain or fragment, S. cerevisiae, UniProt P21957 1-190, looked up)
chain: MSENQRLGLSEEEVEAAEVLGVLKQSCRQKSQPSEDVSQADKMPASESSTTPLNILDRVSNKIISNVVTFYDEINTNKRPLKSIGRLLDDDDDEHDDYDYNDDEFFTNKRQKLSRAIAKGKDNLKEYKLNMSIESKKRLVTCLHLLKLANKQLSDKISCLQDLVEKEQVHPLHKQDGNARTTTGAGEDET
notes: Opi1, S. cerevisiae, N terminus from aa1 to aa190 (N-Opi1), holds the leucine zipper (aa 139-166); pMAL-c expression vector; also called N-Opi1^1-190; source: for SEC further run on Superdex 200 Increase; not shown: MBP, N-terminal, kept

Experiments:
[1] = biological target: B5; test: pull-down; as the pull-down with alternate tags, but binding reactions carried out at decreasing reactant concentrations (relative volume of the binding reaction varied); prey detected by Western blot; details: both partners purified
MBP-N-Opi1^N150D = biological target: T1, MBP-N-Opi1^N150D (S. cerevisiae, UniProt P21957 1-190, N150D); test: as above; details: both partners purified
T1 construct: Opi1, S. cerevisiae, N terminus from aa1 to aa190 (N-Opi1) with N150D; pMAL-c expression vector; amplified from mutant OPI1 DNA template; source: for SEC further run on Superdex 200 Increase; not shown: MBP, N-terminal, kept
T1 sequence (looked up): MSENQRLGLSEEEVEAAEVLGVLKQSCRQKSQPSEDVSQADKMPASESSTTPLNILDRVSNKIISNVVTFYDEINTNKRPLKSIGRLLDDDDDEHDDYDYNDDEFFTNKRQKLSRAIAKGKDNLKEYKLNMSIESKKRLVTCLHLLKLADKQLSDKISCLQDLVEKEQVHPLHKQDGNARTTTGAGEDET

[2] = biological target: T2, MBP-N-Opi1^3L (L146A, L153S, L160A) (S. cerevisiae, UniProt P21957 1-190, L146A | L153S | L160A); test: as above; details: both partners purified
T2 construct: Opi1, S. cerevisiae, N terminus from aa1 to aa190 (N-Opi1) with the 3L mutations L146A L153S L160A; pMAL-c expression vector; not shown: MBP, N-terminal, kept
T2 sequence (looked up): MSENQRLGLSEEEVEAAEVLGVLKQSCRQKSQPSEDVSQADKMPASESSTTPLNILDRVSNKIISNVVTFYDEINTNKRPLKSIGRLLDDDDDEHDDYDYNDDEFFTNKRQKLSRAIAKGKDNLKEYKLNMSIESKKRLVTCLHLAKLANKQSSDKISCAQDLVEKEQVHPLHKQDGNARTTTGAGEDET

[3] = biological target: T3, GST-N-Opi1^3L (L146A, L153S, L160A) (S. cerevisiae, UniProt P21957 1-190, L146A | L153S | L160A); test: as above; details: both partners purified
T3 construct: Opi1, S. cerevisiae, N terminus from aa1 to aa190 (N-Opi1) with the 3L mutations L146A L153S L160A; pGEX-4T-1 expression vector; not shown: GST, N-terminal, kept
T3 sequence (looked up): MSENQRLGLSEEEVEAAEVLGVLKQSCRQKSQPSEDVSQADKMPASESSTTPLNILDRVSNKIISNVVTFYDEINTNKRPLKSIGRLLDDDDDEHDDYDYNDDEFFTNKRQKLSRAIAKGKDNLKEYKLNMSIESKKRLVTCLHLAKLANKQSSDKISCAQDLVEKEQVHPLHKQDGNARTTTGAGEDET

GST-N-Opi1^N150D = biological target: T4, GST-N-Opi1^N150D (S. cerevisiae, UniProt P21957 1-190, N150D); test: as above; details: both partners purified
T4 construct: Opi1, S. cerevisiae, N terminus from aa1 to aa190 (N-Opi1) with N150D; pGEX-4T-1 expression vector; not shown: GST, N-terminal, kept
T4 sequence (looked up): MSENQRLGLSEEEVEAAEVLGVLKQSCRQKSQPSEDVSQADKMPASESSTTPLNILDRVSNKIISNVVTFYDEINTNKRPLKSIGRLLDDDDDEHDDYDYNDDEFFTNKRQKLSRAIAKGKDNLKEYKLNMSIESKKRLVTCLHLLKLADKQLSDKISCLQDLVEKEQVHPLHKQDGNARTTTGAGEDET

[4] = biological target: T5, GST-N-Opi1^WT (glutathione-S-transferase fused to Opi1 aa1-190) (S. cerevisiae, UniProt P21957 1-190); test: pull-down; around 0.5 ug bait on amylose resin or glutathione-Sepharose with 1.5 ug prey of the alternate tag in 100 ul binding buffer (20 mM Tris-HCl pH 8, 150 mM NaCl, 1 mM EDTA, 1 mM DTT, 20% glycerol, 0.05% Triton X-100) with 50 ug/ml BSA, 2 h at 4 C; bait eluted with its ligand, prey detected by Western blot against MBP or GST; details: both partners purified
T5 construct: Opi1, S. cerevisiae, N terminus from aa1 to aa190 (N-Opi1), holds the leucine zipper (aa 139-166); pGEX-4T-1 expression vector; also called N-Opi1^1-190; not shown: GST, N-terminal, kept
T5 sequence (looked up): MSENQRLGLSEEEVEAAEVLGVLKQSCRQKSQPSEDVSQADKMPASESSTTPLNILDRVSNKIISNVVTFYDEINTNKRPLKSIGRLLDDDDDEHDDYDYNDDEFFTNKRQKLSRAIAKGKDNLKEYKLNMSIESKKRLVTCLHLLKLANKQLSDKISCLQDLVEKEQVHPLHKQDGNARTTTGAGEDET

[5] = biological target: the molecule itself; test: SEC; 0.5 mg of affinity-purified MBP fusion on Superdex 200 Increase 10/300 GL, 20 mM Tris-HCl pH 7.4, 150 mM NaCl, 0.5 ml/min; molecular weights estimated from calibration markers

B1: GST-C-Opi1^WT (glutathione-S-transferase fused to Opi1 aa291-404) (domain or fragment, S. cerevisiae, UniProt P21957 291-404, looked up)
chain: QQQQQQQQLLQQQLLQQQQQKRNKDGDDSASPSSSVTANGKVLILAKESLEMVRNVMGVVDSTLGKAEEWVKQKQEVKEMIRERFLQQQQQYRQQQQKDGNYVKPSQDNVDSKD
notes: Opi1, S. cerevisiae, C terminus from aa291 to aa404 (C-Opi1), holds the AID (aa 321-379); pGEX-4T-1 expression vector; also called C-Opi1^291-404; Opi1^291-404; not shown: GST, N-terminal, kept
[1]
  binding result: binds
MBP-N-Opi1^N150D
  binding result: binds
[2]
  binding result: binds

B2: GST-C-Opi1^S339F (domain or fragment, S. cerevisiae, UniProt P21957 291-404, looked up)
chain: QQQQQQQQLLQQQLLQQQQQKRNKDGDDSASPSSSVTANGKVLILAKEFLEMVRNVMGVVDSTLGKAEEWVKQKQEVKEMIRERFLQQQQQYRQQQQKDGNYVKPSQDNVDSKD
notes: Opi1, S. cerevisiae, C terminus from aa291 to aa404 (C-Opi1) with S339F; pGEX-4T-1 expression vector; loss of function mutation known from earlier genetic work; not shown: GST, N-terminal, kept
[1]
  binding result: binds

B3: GST-C-Opi1^V343E (domain or fragment, S. cerevisiae, UniProt P21957 291-404, looked up)
chain: QQQQQQQQLLQQQLLQQQQQKRNKDGDDSASPSSSVTANGKVLILAKESLEMERNVMGVVDSTLGKAEEWVKQKQEVKEMIRERFLQQQQQYRQQQQKDGNYVKPSQDNVDSKD
notes: Opi1, S. cerevisiae, C terminus from aa291 to aa404 (C-Opi1) with V343E; pGEX-4T-1 expression vector; loss of function mutation known from earlier genetic work; not shown: GST, N-terminal, kept
[1]
  binding result: binds

B4: MBP-C-Opi1^WT (maltose-binding protein fused to Opi1 aa291-404) (domain or fragment, S. cerevisiae, UniProt P21957 291-404, looked up)
chain: QQQQQQQQLLQQQLLQQQQQKRNKDGDDSASPSSSVTANGKVLILAKESLEMVRNVMGVVDSTLGKAEEWVKQKQEVKEMIRERFLQQQQQYRQQQQKDGNYVKPSQDNVDSKD
notes: Opi1, S. cerevisiae, C terminus from aa291 to aa404 (C-Opi1), holds the AID (aa 321-379); pMAL-c expression vector; also called C-Opi1^291-404; Opi1^291-404; not shown: MBP, N-terminal, kept
[3]
  binding result: binds
GST-N-Opi1^N150D
  binding result: binds
[4]
  binding result: binds

## B5
[5]
  stoichiometry N: ~2
